Assay results reported in publication PMC4529489.
Values belong to the substance of their own block, whether it stands above or below them.

Columns and labels:
[1] = molecular target: Human Ubc13 R85S (human); assay: ITC
[2] = molecular target: Ube2V2 (Homo sapiens) (UniProt Q15819); details: cited from earlier work
[3] = molecular target: Human Ubc13, wild type (human); assay: ITC

fold increase of Kd against WT Ubc13 [1]: > 30 times
Substance: Human Ube2V2 (natural protein)

Substance: Ubc13 (from UniProt P61088)
Kd [2]: 50 nM

fold increase of Kd against WT Ube2V2 [3]: 4 times
Substance: Human Ube2V2 E20A (natural protein)
